In PMC12784347, “Structural insights into substrate binding, residue contributions, and catalytic mechanism of phosphopantetheine adenylyltransferase from Helicobacter pylori” (Bioscience Reports, 2025):
Numbering of substitutions follows the chain as printed. Names may count otherwise.

B1: Helicobacter pylori phosphopantetheine adenylyltransferase, wild type (enzyme)
chain: MQKIGIYPGTFDPVTNGHIDIIHRSSELFEKLIVAVAHSSAKNPMFSLDERLKMIQLATKSFKNVECVAFEGLLANLAKEYHCKVLVRGLRVVSDFEYELQMGYANKSLNHELETLYFMPTLQNAFISSSIVRSIIAHKGDASHLVPKEIYPLISKA
notes: Phosphopantetheine adenylyltransferase (PPAT; EC 2.7.3.3) of Helicobacter pylori; each monomer in the crystal structures comprises 157 residues; also called HpPPAT; WT HpPPAT
B2: Helicobacter pylori phosphopantetheine adenylyltransferase P8A mutant (enzyme)
chain: B1 chain with P8A
notes: Phosphopantetheine adenylyltransferase (PPAT; EC 2.7.3.3) of Helicobacter pylori with Pro8 replaced by alanine; also called HpPPAT P8A; HpPPAT mutant P8A

What was measured:
[1] = target: the molecule itself; test: crystal structure; HpPPAT:ATP; reservoir 17% PEG1000, 0.1 M citrate phosphate pH 4.2, 1.5 mM ATP, 0.2 M Li2SO4; space group P1, 12 copies in the asymmetric unit; 2.12 Å
[2] = target: the molecule itself; test: crystal structure; apo HpPPAT; hanging-drop vapor diffusion, 293K, protein 15 mg/ml in 20 mM Tris-HCl pH 7.9, 100 mM NaCl; reservoir 2.5 M NaCl, 0.1 M sodium acetate pH 4.5, 0.2 M Li2SO4; space group H3, two copies in the asymmetric unit; 1.98 Å
[3] = target: the molecule itself; test: crystal structure; HpPPAT P8A:dPCoA; reservoir 18% PEG550 MME, 0.2 M KF pH 7.4; space group P2(1)2(1)2, hexamer; 2.00 Å

Protein | stoichiometry N [1] | stoichiometry N [2] | stoichiometry N [3]
B1 | 12 | 2 | –
B2 | – | – | 6
